The record followed here is patent publication US20100272723A1 (Xencor, published 2010).

B1: H1.196 / L1.152 (antibody, V domains shown)
VH: EVQLVESGGGLVKPGGSLKLSCAASGYTFTSYVMHWVRQAPGKGLEWIGYINPYNDGPKYNEKFQGRVTISSDKSISTAYMELSSLRSEDTAMYYCARGTYYYGTSVFDYWGQGTLVTVSS
VL: DIVMTQSPATLSLSPGERATLSCRSSKSLQNVNGNTYLYWFQQKPGQSPQLLIYRMSNLASGVPDRFSGSGSGTEFTLTISSLEPEDFAVYYCMQHLEYPNTFGAGTKLEIK
notes: vs H1L1 (Kabat): VH T57P/S100cT/R100dS; VL L27cQ/S27eV/F96N; also called 4G7 H1.196_L1.152
B2: H1.196 / L1.154 (antibody, V domains shown)
VH: EVQLVESGGGLVKPGGSLKLSCAASGYTFTSYVMHWVRQAPGKGLEWIGYINPYNDGPKYNEKFQGRVTISSDKSISTAYMELSSLRSEDTAMYYCARGTYYYGTSVFDYWGQGTLVTVSS
VL: DIVMTQSPATLSLSPGERATLSCRSSKSLQNVNGNTYLYWFQQKPGQSPQLLIYRMSNLNSGVPDRFSGSGSGTEFTLTISSLEPEDFAVYYCMQHLEYPNTFGAGTKLEIK
notes: vs H1L1 (Kabat): VH T57P/S100cT/R100dS; VL L27cQ/S27eV/A55N/F96N; also called 4G7 H1.196_L1.154
B3: H1.201 / L1.155 (antibody, V domains shown)
VH: EVQLVESGGGLVKPGGSLKLSCAASGYTFTSYVMHWVRQAPGKGLEWIGYINPYNSGTKYNEKFQGRVTISSDKSISTAYMELSSLRSEDTAMYYCARGTYYYGTRVFDYWGQGTLVTVSS
VL: DIVMTQSPATLSLSPGERATLSCRSSKSLQNVNGNTYLYWFQQKPGQSPQLLIYRMSNLNSGVPDRFSGSGSGTEFTLTISSLEPEDFAVYYCMQHLEYPITFGAGTKLEIK
notes: vs H1L1 (Kabat): VH D55S/S100cT; VL L27cQ/S27eV/A55N/F96I; also called 4G7 H1.201_L1.155
B4: H1.199 / L1.141 (antibody, V domains shown)
VH: EVQLVESGGGLVKPGGSLKLSCAASGYTFTSYVMHWVRQAPGKGLEWIGYINPYNDGPEYNEKFQGRVTISSDKSISTAYMELSSLRSEDTAMYYCARGTYYYGTRVFDYWGQGTLVTVSS
VL: DIVMTQSPATLSLSPGERATLSCRSSKSLLNSNGNTYLYWFQQKPGQSPQLLIYRMSNLNSGVPDRFSGSGSGTEFTLTISSLEPEDFAVYYCMQHLEYPNTFGAGTKLEIK
notes: vs H1L1 (Kabat): VH T57P/K58E/S100cT; VL A55N/F96N; also called 4G7 H1.199_L1.141
B5: H1.199 / L1.148 (antibody, V domains shown)
VH: EVQLVESGGGLVKPGGSLKLSCAASGYTFTSYVMHWVRQAPGKGLEWIGYINPYNDGPEYNEKFQGRVTISSDKSISTAYMELSSLRSEDTAMYYCARGTYYYGTRVFDYWGQGTLVTVSS
VL: DIVMTQSPATLSLSPGERATLSCRSSKSLQNSNGNTYLYWFQQKPGQSPQLLIYRMSNLNSGVPDRFSGSGSGTEFTLTISSLEPEDFAVYYCMQHLEYPNTFGAGTKLEIK
notes: vs H1L1 (Kabat): VH T57P/K58E/S100cT; VL L27cQ/A55N/F96N; also called 4G7 H1.199_L1.148
B6: H1.199 / L1.146 (antibody, V domains shown)
VH: EVQLVESGGGLVKPGGSLKLSCAASGYTFTSYVMHWVRQAPGKGLEWIGYINPYNDGPEYNEKFQGRVTISSDKSISTAYMELSSLRSEDTAMYYCARGTYYYGTRVFDYWGQGTLVTVSS
VL: DIVMTQSPATLSLSPGERATLSCRSSKSLLNVNGNTYLYWFQQKPGQSPQLLIYRMSNLNSGVPDRFSGSGSGTEFTLTISSLEPEDFAVYYCMQHLEYPNTFGAGTKLEIK
notes: vs H1L1 (Kabat): VH T57P/K58E/S100cT; VL S27eV/A55N/F96N; also called 4G7 H1.199_L1.146
B7: H1.199 / L1.139 (antibody, V domains shown)
VH: EVQLVESGGGLVKPGGSLKLSCAASGYTFTSYVMHWVRQAPGKGLEWIGYINPYNDGPEYNEKFQGRVTISSDKSISTAYMELSSLRSEDTAMYYCARGTYYYGTRVFDYWGQGTLVTVSS
VL: DIVMTQSPATLSLSPGERATLSCRSSKSLLNVNGNTYLYWFQQKPGQSPQLLIYRMSNLASGVPDRFSGSGSGTEFTLTISSLEPEDFAVYYCMQHLEYPNTFGAGTKLEIK
notes: vs H1L1 (Kabat): VH T57P/K58E/S100cT; VL S27eV/F96N; also called 4G7 H1.199_L1.139
B8: H1.199 / L1.152 (antibody, V domains shown)
VH: EVQLVESGGGLVKPGGSLKLSCAASGYTFTSYVMHWVRQAPGKGLEWIGYINPYNDGPEYNEKFQGRVTISSDKSISTAYMELSSLRSEDTAMYYCARGTYYYGTRVFDYWGQGTLVTVSS
VL: DIVMTQSPATLSLSPGERATLSCRSSKSLQNVNGNTYLYWFQQKPGQSPQLLIYRMSNLASGVPDRFSGSGSGTEFTLTISSLEPEDFAVYYCMQHLEYPNTFGAGTKLEIK
notes: vs H1L1 (Kabat): VH T57P/K58E/S100cT; VL L27cQ/S27eV/F96N; also called 4G7 H1.199_L1.152

This assay deals with T1, human CD19 (human, UniProt P15391 20-556).
T1 construct: also called B-cell surface antigen B4; B-cell antigen CD19
T1 sequence: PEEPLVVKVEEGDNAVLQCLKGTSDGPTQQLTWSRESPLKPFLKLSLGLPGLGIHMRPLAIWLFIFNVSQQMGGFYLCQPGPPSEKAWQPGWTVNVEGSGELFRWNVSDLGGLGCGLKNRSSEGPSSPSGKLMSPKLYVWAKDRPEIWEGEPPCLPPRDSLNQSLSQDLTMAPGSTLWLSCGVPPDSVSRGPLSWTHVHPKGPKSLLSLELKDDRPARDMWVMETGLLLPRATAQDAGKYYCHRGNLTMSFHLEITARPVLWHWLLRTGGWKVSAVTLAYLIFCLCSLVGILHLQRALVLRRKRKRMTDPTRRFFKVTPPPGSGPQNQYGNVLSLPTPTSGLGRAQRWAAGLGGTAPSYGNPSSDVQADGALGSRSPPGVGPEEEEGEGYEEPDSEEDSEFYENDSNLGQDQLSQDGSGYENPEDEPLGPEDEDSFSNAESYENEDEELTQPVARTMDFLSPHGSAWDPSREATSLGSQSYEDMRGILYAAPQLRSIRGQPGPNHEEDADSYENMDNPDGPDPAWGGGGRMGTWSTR
As to the kind of experiment: binding affinity relative to the parent H1L1 mAb (Example 5); assay and format not named on the sheet.
For the molecule B1, the Fold change binding turned out to be 4.36 fold.
On to B2, for which the Fold change binding came out at 4.44 fold.
As to B3, the Fold change binding amounted to 4.48 fold.
As for B4, the Fold change binding was 4.02 fold.
For B5, the Fold change binding is 4.34 fold.
The same measure for B6: 4.11 fold; for B7: 2.36 fold.
On to B8, for which the Fold change binding came out at 3.55 fold.
